The source of these data is patent US20230357348A1 (AstraZeneca / MedImmune, published 2023).

The target in assay [1] is human glucagon receptor (hGCGR) (human, UniProt P47871 26-477). In words: cell-based or functional assay.
Assay [2] concerns the target human GLP-1 receptor (hGLP-1R) (human, UniProt P43220 24-463). In words: cell-based or functional assay.

Starred links: 1 amine or outer side, 2 acyl side, 3 side chain; linkers in the order of their positions; H or OH if unused. Non-standard residues stand in square brackets, D forms with d. Groups on a side chain read outwards from the residue. No end group written: not given here. *: point of attachment. Trp(5-Br) = N[C@@H](Cc1c[nH]c2ccc(Br)cc12)C(=O)O; C20 diacid = O=C(O)CCCCCCCCCCCCCCCCCCC(=O)*; C18 diacid = O=C(O)CCCCCCCCCCCCCCCCC(=O)*; γGlu = O=C(O)[C@H](CCC(=O)[*:2])N[*:1]; αMeF = C[C@](N)(Cc1ccccc1)C(=O)O; AEEA = NCCOCCOCC(=O)O; Aib = CC(C)(N)C(=O)O

Sequence of human glucagon receptor (hGCGR) (P47871 26-477): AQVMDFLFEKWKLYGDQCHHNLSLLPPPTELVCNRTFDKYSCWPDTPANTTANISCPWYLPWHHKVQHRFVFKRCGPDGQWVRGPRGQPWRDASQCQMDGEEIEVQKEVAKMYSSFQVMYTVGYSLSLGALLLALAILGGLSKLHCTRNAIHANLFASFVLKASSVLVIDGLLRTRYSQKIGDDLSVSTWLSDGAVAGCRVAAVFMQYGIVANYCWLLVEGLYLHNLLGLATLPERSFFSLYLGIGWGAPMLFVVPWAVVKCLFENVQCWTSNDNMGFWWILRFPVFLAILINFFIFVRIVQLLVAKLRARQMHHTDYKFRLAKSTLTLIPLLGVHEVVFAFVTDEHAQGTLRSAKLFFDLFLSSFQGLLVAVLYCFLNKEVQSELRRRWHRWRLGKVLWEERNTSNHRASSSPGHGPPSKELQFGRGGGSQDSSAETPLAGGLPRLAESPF

B1: Peptide 434 (peptide)
peptide: H[Aib]QGTFTSDVSK[αMeF]LDSK([AEEA-AEEA-γGlu-C18 diacid])RAQDFVR[Trp(5-Br)]LL[Aib]E-OH
modifications: N-terminus assumed
SMILES: CC(C)C[C@H](NC(=O)[C@H](Cc1c[nH]c2ccc(Br)cc12)NC(=O)[C@H](CCCNC(=N)N)NC(=O)[C@@H](NC(=O)[C@H](Cc1ccccc1)NC(=O)[C@H](CC(=O)O)NC(=O)[C@H](CCC(N)=O)NC(=O)[C@H](C)NC(=O)[C@H](CCCNC(=N)N)NC(=O)[C@H](CCCCNC(=O)COCCOCCNC(=O)COCCOCCNC(=O)CC[C@H](NC(=O)CCCCCCCCCCCCCCCCC(=O)O)C(=O)O)NC(=O)[C@H](CO)NC(=O)[C@H](CC(=O)O)NC(=O)[C@H](CC(C)C)NC(=O)[C@](C)(Cc1ccccc1)NC(=O)[C@H](CCCCN)NC(=O)[C@H](CO)NC(=O)[C@@H](NC(=O)[C@H](CC(=O)O)NC(=O)[C@H](CO)NC(=O)[C@@H](NC(=O)[C@H](Cc1ccccc1)NC(=O)[C@@H](NC(=O)CNC(=O)[C@H](CCC(N)=O)NC(=O)C(C)(C)NC(=O)[C@@H](N)Cc1c[nH]cn1)[C@@H](C)O)[C@@H](C)O)C(C)C)C(C)C)C(=O)N[C@@H](CC(C)C)C(=O)NC(C)(C)C(=O)N[C@@H](CCC(=O)O)C(=O)O
Turning to B1, the “hGluc-R EC50 (pM)” value in assay [1] was 294 pM. The “hGLP-1R EC50 (pM)” value in assay [2] is 153 pM.

B2: Peptide 437 (peptide)
peptide: H[Aib]QGTFTSDVSK[αMeF]LDRK([AEEA-AEEA-γGlu-C20 diacid])RAQDFVRWLV[Aib]E-NH2
modifications: N-terminus assumed
SMILES: CC(C)C[C@H](NC(=O)[C@H](Cc1c[nH]c2ccccc12)NC(=O)[C@H](CCCNC(=N)N)NC(=O)[C@@H](NC(=O)[C@H](Cc1ccccc1)NC(=O)[C@H](CC(=O)O)NC(=O)[C@H](CCC(N)=O)NC(=O)[C@H](C)NC(=O)[C@H](CCCNC(=N)N)NC(=O)[C@H](CCCCNC(=O)COCCOCCNC(=O)COCCOCCNC(=O)CC[C@H](NC(=O)CCCCCCCCCCCCCCCCCCC(=O)O)C(=O)O)NC(=O)[C@H](CCCNC(=N)N)NC(=O)[C@H](CC(=O)O)NC(=O)[C@H](CC(C)C)NC(=O)[C@](C)(Cc1ccccc1)NC(=O)[C@H](CCCCN)NC(=O)[C@H](CO)NC(=O)[C@@H](NC(=O)[C@H](CC(=O)O)NC(=O)[C@H](CO)NC(=O)[C@@H](NC(=O)[C@H](Cc1ccccc1)NC(=O)[C@@H](NC(=O)CNC(=O)[C@H](CCC(N)=O)NC(=O)C(C)(C)NC(=O)[C@@H](N)Cc1c[nH]cn1)[C@@H](C)O)[C@@H](C)O)C(C)C)C(C)C)C(=O)N[C@H](C(=O)NC(C)(C)C(=O)N[C@@H](CCC(=O)O)C(N)=O)C(C)C
Regarding B2, the “hGluc-R EC50 (pM)” value in assay [1] was determined as 96.9 pM. In addition, the “hGLP-1R EC50 (pM)” value in assay [2] came out at 26.9 pM.

B3: Peptide 436 (peptide)
peptide: H[Aib]QGTFTSDVSK[αMeF]LDRK([AEEA-AEEA-γGlu-C18 diacid])RAQDFVRWLV[Aib]E-NH2
modifications: N-terminus assumed
SMILES: CC(C)C[C@H](NC(=O)[C@H](Cc1c[nH]c2ccccc12)NC(=O)[C@H](CCCNC(=N)N)NC(=O)[C@@H](NC(=O)[C@H](Cc1ccccc1)NC(=O)[C@H](CC(=O)O)NC(=O)[C@H](CCC(N)=O)NC(=O)[C@H](C)NC(=O)[C@H](CCCNC(=N)N)NC(=O)[C@H](CCCCNC(=O)COCCOCCNC(=O)COCCOCCNC(=O)CC[C@H](NC(=O)CCCCCCCCCCCCCCCCC(=O)O)C(=O)O)NC(=O)[C@H](CCCNC(=N)N)NC(=O)[C@H](CC(=O)O)NC(=O)[C@H](CC(C)C)NC(=O)[C@](C)(Cc1ccccc1)NC(=O)[C@H](CCCCN)NC(=O)[C@H](CO)NC(=O)[C@@H](NC(=O)[C@H](CC(=O)O)NC(=O)[C@H](CO)NC(=O)[C@@H](NC(=O)[C@H](Cc1ccccc1)NC(=O)[C@@H](NC(=O)CNC(=O)[C@H](CCC(N)=O)NC(=O)C(C)(C)NC(=O)[C@@H](N)Cc1c[nH]cn1)[C@@H](C)O)[C@@H](C)O)C(C)C)C(C)C)C(=O)N[C@H](C(=O)NC(C)(C)C(=O)N[C@@H](CCC(=O)O)C(N)=O)C(C)C
As for B3, in assay [1], the “hGluc-R EC50 (pM)” value was determined as 68.8 pM. Also, the “hGLP-1R EC50 (pM)” value in assay [2] came to 7.43 pM.

B4: Peptide 438 (peptide)
peptide: H[Aib]QGTFTSDVSK[αMeF]LDKK([AEEA-AEEA-γGlu-C18 diacid])RAQDFVRWLEA[Aib]G-NH2
modifications: N-terminus assumed
SMILES: CC(C)C[C@H](NC(=O)[C@H](Cc1c[nH]c2ccccc12)NC(=O)[C@H](CCCNC(=N)N)NC(=O)[C@@H](NC(=O)[C@H](Cc1ccccc1)NC(=O)[C@H](CC(=O)O)NC(=O)[C@H](CCC(N)=O)NC(=O)[C@H](C)NC(=O)[C@H](CCCNC(=N)N)NC(=O)[C@H](CCCCNC(=O)COCCOCCNC(=O)COCCOCCNC(=O)CC[C@H](NC(=O)CCCCCCCCCCCCCCCCC(=O)O)C(=O)O)NC(=O)[C@H](CCCCN)NC(=O)[C@H](CC(=O)O)NC(=O)[C@H](CC(C)C)NC(=O)[C@](C)(Cc1ccccc1)NC(=O)[C@H](CCCCN)NC(=O)[C@H](CO)NC(=O)[C@@H](NC(=O)[C@H](CC(=O)O)NC(=O)[C@H](CO)NC(=O)[C@@H](NC(=O)[C@H](Cc1ccccc1)NC(=O)[C@@H](NC(=O)CNC(=O)[C@H](CCC(N)=O)NC(=O)C(C)(C)NC(=O)[C@@H](N)Cc1c[nH]cn1)[C@@H](C)O)[C@@H](C)O)C(C)C)C(C)C)C(=O)N[C@@H](CCC(=O)O)C(=O)N[C@@H](C)C(=O)NC(C)(C)C(=O)NCC(N)=O
Turning to B4, in assay [1], the “hGluc-R EC50 (pM)” value was determined as 68.9 pM. Also, the “hGLP-1R EC50 (pM)” value in assay [2] came out at 17.9 pM.

B5: Peptide 439 (peptide)
peptide: H[Aib]QGTFTSDVSK[αMeF]LDRK([AEEA-AEEA-γGlu-C18 diacid])RAQDFVRWLL[Aib]E-NH2
modifications: N-terminus assumed
SMILES: CC(C)C[C@H](NC(=O)[C@H](Cc1c[nH]c2ccccc12)NC(=O)[C@H](CCCNC(=N)N)NC(=O)[C@@H](NC(=O)[C@H](Cc1ccccc1)NC(=O)[C@H](CC(=O)O)NC(=O)[C@H](CCC(N)=O)NC(=O)[C@H](C)NC(=O)[C@H](CCCNC(=N)N)NC(=O)[C@H](CCCCNC(=O)COCCOCCNC(=O)COCCOCCNC(=O)CC[C@H](NC(=O)CCCCCCCCCCCCCCCCC(=O)O)C(=O)O)NC(=O)[C@H](CCCNC(=N)N)NC(=O)[C@H](CC(=O)O)NC(=O)[C@H](CC(C)C)NC(=O)[C@](C)(Cc1ccccc1)NC(=O)[C@H](CCCCN)NC(=O)[C@H](CO)NC(=O)[C@@H](NC(=O)[C@H](CC(=O)O)NC(=O)[C@H](CO)NC(=O)[C@@H](NC(=O)[C@H](Cc1ccccc1)NC(=O)[C@@H](NC(=O)CNC(=O)[C@H](CCC(N)=O)NC(=O)C(C)(C)NC(=O)[C@@H](N)Cc1c[nH]cn1)[C@@H](C)O)[C@@H](C)O)C(C)C)C(C)C)C(=O)N[C@@H](CC(C)C)C(=O)NC(C)(C)C(=O)N[C@@H](CCC(=O)O)C(N)=O
B5: in assay [1], the “hGluc-R EC50 (pM)” value was 57.7 pM. Besides, the “hGLP-1R EC50 (pM)” value in assay [2] came to 30.6 pM.
